Laboratory results published in article PMC2821790.

How the values were obtained:
[1] = molecular target: T1, HMGA1(2/3) peptide (AT-hooks DBD2 and DBD3) (UniProt P17096 49-91); experiment: EMSA
T1 chain: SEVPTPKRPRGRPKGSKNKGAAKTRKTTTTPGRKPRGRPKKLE

[2] = molecular target: Sp1 (UniProt P08047 1-785); experiment: EMSA
[3] = molecular target: T2, 15N-G11,G20,G37-HMGA1(2/3) peptide (UniProt P17096 49-91); experiment: NMR
T2 chain: T1 chain

Sequence of Sp1 (P08047 whole entry): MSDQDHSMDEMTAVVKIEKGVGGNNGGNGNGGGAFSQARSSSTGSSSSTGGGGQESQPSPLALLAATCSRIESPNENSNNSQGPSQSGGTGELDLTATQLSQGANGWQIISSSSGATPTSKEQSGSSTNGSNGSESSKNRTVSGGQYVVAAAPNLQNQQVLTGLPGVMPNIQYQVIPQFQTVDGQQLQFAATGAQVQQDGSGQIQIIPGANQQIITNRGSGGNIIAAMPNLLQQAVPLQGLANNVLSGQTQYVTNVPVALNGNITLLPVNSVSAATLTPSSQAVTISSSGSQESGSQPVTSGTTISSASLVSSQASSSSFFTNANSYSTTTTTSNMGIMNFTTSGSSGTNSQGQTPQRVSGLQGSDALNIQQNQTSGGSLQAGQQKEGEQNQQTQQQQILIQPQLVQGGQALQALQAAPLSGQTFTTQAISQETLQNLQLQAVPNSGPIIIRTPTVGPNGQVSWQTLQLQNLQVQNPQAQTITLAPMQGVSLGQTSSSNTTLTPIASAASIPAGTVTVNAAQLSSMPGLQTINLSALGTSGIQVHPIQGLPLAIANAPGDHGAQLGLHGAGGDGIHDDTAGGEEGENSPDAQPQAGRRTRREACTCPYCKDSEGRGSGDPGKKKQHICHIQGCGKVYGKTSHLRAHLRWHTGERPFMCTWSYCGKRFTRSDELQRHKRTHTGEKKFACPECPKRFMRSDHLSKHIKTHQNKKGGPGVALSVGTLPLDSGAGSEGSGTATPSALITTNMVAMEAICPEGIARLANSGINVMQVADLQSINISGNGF

B1: NOS2 Oct EMSA probe (-65/-50) (dsDNA)
DNA 1: AGTTATGCAAAATAGC
DNA 2: GCTATTTTGCATAACT
[1]
  binding result: binds

B2: Sp1 consensus probe (dsDNA)
DNA 1: ATTCGATCGGGGCGGGGCGAGC
DNA 2: GCTCGCCCCGCCCCGATCGAAT
[2]
  binding result: binds

B3: NOS2 Oct 16-bp DNA (NMR) (dsDNA)
DNA 1: AGTTATGCAAAATAGC
DNA 2: GCTATTTTGCATAACT
[3]
  binding result: binds
